T1: human BCMA (cell surface) (human)
T1 chain: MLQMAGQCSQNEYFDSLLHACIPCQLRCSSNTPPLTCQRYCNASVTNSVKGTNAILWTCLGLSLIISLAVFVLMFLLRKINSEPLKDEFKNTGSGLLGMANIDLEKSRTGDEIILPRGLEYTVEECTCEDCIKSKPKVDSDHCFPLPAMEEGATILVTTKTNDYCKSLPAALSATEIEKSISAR

T2: human BCMA-Fc (human)
T2 chain: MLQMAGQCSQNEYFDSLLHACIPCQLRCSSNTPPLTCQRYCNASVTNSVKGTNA

T3: human BCMA R27P (human)
T3 chain: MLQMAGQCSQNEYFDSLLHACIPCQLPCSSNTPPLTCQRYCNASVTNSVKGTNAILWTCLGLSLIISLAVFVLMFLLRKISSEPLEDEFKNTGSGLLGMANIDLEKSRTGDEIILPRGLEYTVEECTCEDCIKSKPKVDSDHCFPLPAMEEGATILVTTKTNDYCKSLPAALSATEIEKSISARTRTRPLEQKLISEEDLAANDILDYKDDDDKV

T4: human BCMA S30del (human)
T4 chain: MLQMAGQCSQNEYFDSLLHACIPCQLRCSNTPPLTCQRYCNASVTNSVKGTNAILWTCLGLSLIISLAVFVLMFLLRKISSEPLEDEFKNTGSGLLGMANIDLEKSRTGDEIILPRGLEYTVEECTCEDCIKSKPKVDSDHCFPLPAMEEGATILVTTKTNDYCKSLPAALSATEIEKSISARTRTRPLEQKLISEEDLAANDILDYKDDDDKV


How the values were obtained:
[1] = target: T1, human BCMA (cell surface); assay: FACS
[2] = target: cynomolgus BCMA-Fc (cynomolgus); assay: SPR, 25C
cynomolgus BCMA-Fc (cynomolgus), sequence (chain, as listed by the source): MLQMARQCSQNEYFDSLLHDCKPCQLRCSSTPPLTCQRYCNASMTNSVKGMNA

[3] = target: T2, human BCMA-Fc; assay: SPR, 25C
[4] = target: T3, human BCMA R27P; assay: FACS
[5] = target: T4, human BCMA S30del; assay: FACS

EC50 [1] [nM] | Kd [2] [nM] | Kd [3] [nM] | Binder | also measured
103 | – | – | P1AH1062 (5D5 LM4) BCMA arm (antibody) chain 1: not shown chain 2: EIVLTQSPGTLSLSPGERATLSCKASQDIDDAINWYQQKPGQAPRLLIYDASLRATGIPDRFSGSGSGTDFTLTISRLEPEDFAVYYCQQSLRTPITFGQGTKLEIKRTVAAPSVFIFPPSDEQLKSGTASVVCLLNNFYPREAKVQWKVDNALQSGNSQESVTEQDSKDSTYSLSSTLTLSKADYEKHKVYACEVTHQGLSSPVTKSFNRGEC | –
23.7 | – | – | P1AG7397 BCMA arm (antibody, V domains shown) VH: EVQLLESGGGLVQPGGSLRLSCAASGFTFSNAWMDWVRQAPGKGLEWVSQITAKSNNYATYYADSVKGRFTISRDNSKNTLYLQMNSLRAEDTAVYYCTDDGYHWGQGTLVTVSS VL: DIQMTQSPSSLSASVGDRVTITCRASEDIRNGLAWYQQKPGKAPKLLIYNANSLHTGVPSRFSGSGSGTDFTLTISSLQPEDFATYYCEDTSKYPYTFGQGTKLEIK | –
– | 0.11 | 1.7 | P1AG5014 (54_VH1a_Y292D/VL1a_L1_pGL) (antibody, V domains shown) VH: EVQLVESGGGLVKPGGSLRLSCAASGFTFSNAWMDWVRQAPGKGLEWVGQITAKSNNYATDYAAPVKGRFTISRDDSKNTLYLQMNSLKTEDTAVYYCTDDGYHWGQGTLVTVSS VL: AIQMTQSPSSLSASVGDRVTITCRASEDIRNDLGWYQQKPGKAPKLLIYNANSLHTGVPSRFSGSGSGTDFTLTISSLQPEDFATYYCEDTSKYPYTFGQGTKLEIK | –
– | 2.2 | 1.3 | P1AG5030 (54_VH1b/VL2a) (antibody, V domains shown) VH: EVQLVESGGGLVKPGGSLRLSCAASGFTFSNAWMDWVRQAPGKGLEWIAQITAKSNNYATYYAAPVKGRFTISRDDSKNTLYLQMNSLKTEDTAVYYCTDDGYHWGQGTLVTVSS VL: DIQMTQSPSSLSASVGDRVTITCRASEDIRNGLAWYQQKPGKAPKLLIYNANSLHTGVPSRFSGSGSGTDFTLTISSLQPEDFATYYCEDTSKYPYTFGQGTKLEIK | –
– | 3.8 | 2.7 | P1AG5028 (54_VH2a/VL1a) (antibody, V domains shown) VH: EVQLLESGGGLVQPGGSLRLSCAASGFTFSNAWMDWVRQAPGKGLEWVSQITAKSNNYATYYADSVKGRFTISRDNSKNTLYLQMNSLRAEDTAVYYCTDDGYHWGQGTLVTVSS VL: AIQMTQSPSSLSASVGDRVTITCRASEDIRNGLAWYQQKPGKAPKLLIYNANSLHTGVPSRFSGSGSGTDFTLTISSLQPEDFATYYCEDTSKYPYTFGQGTKLEIK | –
– | 1.7 | 3.4 | P1AG5067 (54_VH1a/VL1a_L1_pGL) (antibody, V domains shown) VH: EVQLVESGGGLVKPGGSLRLSCAASGFTFSNAWMDWVRQAPGKGLEWVGQITAKSNNYATYYAAPVKGRFTISRDDSKNTLYLQMNSLKTEDTAVYYCTDDGYHWGQGTLVTVSS VL: AIQMTQSPSSLSASVGDRVTITCRASEDIRNDLGWYQQKPGKAPKLLIYNANSLHTGVPSRFSGSGSGTDFTLTISSLQPEDFATYYCEDTSKYPYTFGQGTKLEIK | –
10.8 | – | – | P1AG7422 BCMA arm (antibody, V domains shown) VH: EVQLVESGGGLVKPGGSLRLSCAASGFTFSNAWMDWVRQAPGKGLEWIAQITAKSNNYATYYAAPVKGRFTISRDDSKNTLYLQMNSLKTEDTAVYYCTDDGYHWGQGTLVTVSS VL: AIQMTQSPSSLSASVGDRVTITCRASEDIRNGLAWYQQKPGKAPKLLIYNANSLHTGVPSRFSGSGSGTDFTLTISSLQPEDFATYYCEDTSKYPYTFGQGTKLEIK | –
– | – | – | Teclistamab BCMA arm (antibody, V domains shown) VH: QLQLQESGPGLVKPSETLSLTCTVSGGSISSGSYFWGWIRQPPGKGLEWIGSIYYSGITYYNPSLKSRVTISVDTSKNQFSLKLSSVTAADTAVYYCARHDGAVAGLFDYWGQGTLVTVSS VL: SYVLTQPPSVSVAPGQTARITCGGNNIGSKSVHWYQQPPGQAPVVVVYDDSDRPSGIPERFSGSNSGNTATLTISRVEAGDEAVYYCQVWDSSSDHVVFGGGTKLTVLG | binding result [4]: no binding; binding result [5]: no binding
21.6 | – | – | P1AG7409 BCMA arm (antibody, V domains shown) VH: QVQLVQSGAEVKKPGASVKVSCKASGYTFTNYWMHWVRQAPGQGLEWMGIIHPNSGSTNYNEKFQGRVTMTRDTSTSTVYMELSSLRSEDTAVYYCARGIYDYPFAYWGQGTLVTVSS VL: DIQMTQSPSSLSASVGDRVTITCRASESVSIHGTHLMHWYQQKPGKAPKLLIYAASNLESGVPSRFSGSGSGTDFTLTISSLQPEDFATYYCQQSIEDPYTFGGGTKVEIK | –
– | 32 | 3.2 | P1AG5034 (E04_VH1b/VL1e) (antibody, V domains shown) VH: QVQLVQSGAEVKKPGASVKVSCKASGYTFTNYWMHWVRQAPGQGLEWMGIIHPNSGSTNYNEKFQGRVTMTVDKSTSTVYMELSSLRSEDTAVYYCARGIYDYPFAYWGQGTLVTVSS VL: DIQMTQSPSSLSASVGDRVTITCRASESVSIHGTHLMHWYQQKPGKAPKLLIYAASSLQSGVPSRFSGSGSGTDFTLTISSLQPEDFATYYCQQSIEDPYTFGGGTKVEIK | –
41.5 | – | – | P1AG7400 BCMA arm (antibody, V domains shown) VH: QVQLVQSGAEVKKPGASVKVSCKASGYTFTNYWMHWVRQAPGQGLEWMGIIHPNSGSTNYNEKFQGRVTMTRDTSTSTVYMELSSLRSEDTAVYYCARGIYDYPFAYWGQGTLVTVSS VL: DIQMTQSPSSLSASVGDRVTITCRASESVSIHGTHLMHWYQQKPGKAPKLLIYAASSLQSGVPSRFSGSGSETDFTLTISSLQPEDFATYYCQQSIEDPYTFGGGTKVEIK | –
– | 14 | 2.6 | P1AG5043 (E04_VH1a/VL1d) (antibody, V domains shown) VH: QVQLVQSGAEVKKPGASVKVSCKASGYTFTNYWMHWVRQAPGQGLEWMGIIHPNSGSTNYNEKFQGRVTMTRDTSTSTVYMELSSLRSEDTAVYYCARGIYDYPFAYWGQGTLVTVSS VL: DIQMTQSPSSLSASVGDRVTITCRASESVSIHGTHLMHWYQQKPGKAPKLLIYAASNLQSGVPSRFSGSGSETDFTLTISSLQPEDFATYYCQQSIEDPYTFGGGTKVEIK | –
– | 14 | 3.2 | P1AG5060 (E04_VH1b/VL1f) (antibody, V domains shown) VH: QVQLVQSGAEVKKPGASVKVSCKASGYTFTNYWMHWVRQAPGQGLEWMGIIHPNSGSTNYNEKFQGRVTMTVDKSTSTVYMELSSLRSEDTAVYYCARGIYDYPFAYWGQGTLVTVSS VL: DIQMTQSPSSLSASVGDRVTITCRASESVSIHGTHLMHWYQQKPGKAPKLLIYAASSLQSGVPSRFSGSGSETDFTLTISSLQPEDFATYYCQQSIEDPYTFGGGTKVEIK | –
– | 33 | 2.7 | P1AG5026 (E04_VH1b/VL1a) (antibody, V domains shown) VH: QVQLVQSGAEVKKPGASVKVSCKASGYTFTNYWMHWVRQAPGQGLEWMGIIHPNSGSTNYNEKFQGRVTMTVDKSTSTVYMELSSLRSEDTAVYYCARGIYDYPFAYWGQGTLVTVSS VL: DIQMTQSPSSLSASVGDRVTITCRASESVSIHGTHLMHWYQQKPGKAPKLLIYAASNLESGVPSRFSGSGSGTDFTLTISSLQPEDFATYYCQQSIEDPYTFGGGTKVEIK | –
– | 30 | 2.3 | P1AG5059 (E04_VH1a/VL1g) (antibody, V domains shown) VH: QVQLVQSGAEVKKPGASVKVSCKASGYTFTNYWMHWVRQAPGQGLEWMGIIHPNSGSTNYNEKFQGRVTMTRDTSTSTVYMELSSLRSEDTAVYYCARGIYDYPFAYWGQGTLVTVSS VL: DIQMTQSPSSLSASVGDRVTITCRASESVSIHGTHLMHWYQQKPGKAPKLLIYAASNLESGVPSRFSGSGSGTDFTLTISSLQPEDFATYFCQQSIEDPYTFGGGTKVEIK | –
– | 35 | 2.8 | P1AG5021 (E04_VH1b/VL1g) (antibody, V domains shown) VH: QVQLVQSGAEVKKPGASVKVSCKASGYTFTNYWMHWVRQAPGQGLEWMGIIHPNSGSTNYNEKFQGRVTMTVDKSTSTVYMELSSLRSEDTAVYYCARGIYDYPFAYWGQGTLVTVSS VL: DIQMTQSPSSLSASVGDRVTITCRASESVSIHGTHLMHWYQQKPGKAPKLLIYAASNLESGVPSRFSGSGSGTDFTLTISSLQPEDFATYFCQQSIEDPYTFGGGTKVEIK | –

— patent US20260285998 (published 2026)
